{
  "source": "paper PMC6389284",
  "about": "“Heterodimerization of UNC-13/RIM regulates synaptic vesicle release probability but not priming in C. elegans” (eLife, 2019)",
  "binders": {"B1": {"name": "C. elegans UNC-10 residues 62-121 WT (domain or fragment, UniProt Q22366 62-121, looked up)", "chain": "KLVGTQDDAICQICQKTKFADGIGHKCFYCQLRSCARCGGRAQSKNKAIWACSLCQKRQQ", "notes": "expressed from pGEX6p1; also called UNC-10/RIM ZF domain; source: E. coli Rosetta2 (DE3), grown with ZnSO4, purified (glutathione sepharose, HRV3C cleavage on beads, Superdex 75)"}},
  "key": {"[1]": {"target": "T1, C. elegans UNC-13 long isoform residues 1-258 bearing the K49E mutation (C. elegans, UniProt P27715 1-258, K49E)", "T1 sequence": "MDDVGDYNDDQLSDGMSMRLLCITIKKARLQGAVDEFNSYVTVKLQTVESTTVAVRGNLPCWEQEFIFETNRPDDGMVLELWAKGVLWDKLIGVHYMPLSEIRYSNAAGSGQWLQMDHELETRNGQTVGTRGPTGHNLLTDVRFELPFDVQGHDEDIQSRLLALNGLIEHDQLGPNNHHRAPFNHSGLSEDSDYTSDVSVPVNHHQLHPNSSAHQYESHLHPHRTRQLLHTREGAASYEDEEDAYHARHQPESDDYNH", "assay": "ITC"}, "[2]": {"target": "T2, C. elegans UNC-13 long isoform residues 1-258 bearing the K49E mutation (C. elegans, UniProt P27715 1-258, K49E)", "T2 construct": "UNC-13 long isoform, C. elegans, residues 1-258 with K49E; expressed from pGEX6p1; Residues left by HRV3C cleavage of the pGEX6p1 fusion are not described; also called UNC-13L residues 1-258; UNC-13L C2A domain; source: E. coli Rosetta2 (DE3), purified (glutathione sepharose, HRV3C cleavage on beads, Superdex 75)", "T2 sequence (looked up)": "T1 sequence", "assay": "ITC; Nano ITC (TA Instruments), 20 mM HEPES pH 7.5, 150 mM NaCl, 25°C; one site independent binding model; UNC-13L 1-258 K49E at 21 µM, UNC-10 62-121 WT at 140 µM or K77/79E at 116 µM", "conditions": "both partners purified"}},
  "data": [
    {"binder": "B1", "values": [
      {"measurement": "Ka", "setting": "[1]", "value": 789000, "unit": "M⁻¹"},
      {"measurement": "Kd", "setting": "[2]", "value": 1290, "unit": "nM"}
    ]}
  ]
}
